Biological target: cytoplasmic dynein-1 heavy chain (bovine) (bovine)
Assay: negative stain EM

stoichiometry N: 2
Substance: cytoplasmic dynein-1 heavy chain (bovine) (natural protein)

From article PMC4385409
